From patent US20180155451A1 (published 2018)

B1: GpH7-B3 variant K334_03V/GpL16-k0 (antibody, human IgG1, kappa)
heavy: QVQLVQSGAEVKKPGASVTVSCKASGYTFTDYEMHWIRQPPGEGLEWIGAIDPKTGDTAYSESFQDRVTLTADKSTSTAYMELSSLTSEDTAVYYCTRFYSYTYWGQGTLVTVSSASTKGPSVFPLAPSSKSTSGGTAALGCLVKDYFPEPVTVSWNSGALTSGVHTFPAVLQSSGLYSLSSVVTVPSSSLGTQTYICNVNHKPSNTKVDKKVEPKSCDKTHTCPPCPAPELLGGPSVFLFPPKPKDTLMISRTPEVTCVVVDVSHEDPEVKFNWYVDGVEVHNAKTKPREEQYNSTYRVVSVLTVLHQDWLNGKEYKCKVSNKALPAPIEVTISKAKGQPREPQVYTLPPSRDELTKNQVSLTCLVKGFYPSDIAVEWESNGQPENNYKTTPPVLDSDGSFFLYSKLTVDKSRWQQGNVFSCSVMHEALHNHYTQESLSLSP
light: DIVMTQSPLSLPVTPGEPASISCQASESLVHSNRNTYLHWYLQKPGQSPQLLIYKVSNRFSGVPDRFSGSGSGTDFTLKISRVEAEDVGVYYCSQNTHVPPTFGQGTKVEIERTVAAPSVFIFPPSDEQLKSGTASVVCLLNNFYPREAKVQWKVDNALQSGNSQESVTEQDSKDSTYSLSSTLTLSKADYEKHKVYACEVTHQGLSSPVTKSFNRGEC
notes: homodimerized IgG1, mutation in both H chains; also called Ho Ab
B2: GpH7-B3 variant K334_16H/GpL16-k0 (antibody, human IgG1, kappa)
heavy: not shown
light: B1 light
notes: as for B1
B3: GpH7-B3 variant S267_09D/GpL16-k0 (antibody, human IgG1, kappa)
heavy: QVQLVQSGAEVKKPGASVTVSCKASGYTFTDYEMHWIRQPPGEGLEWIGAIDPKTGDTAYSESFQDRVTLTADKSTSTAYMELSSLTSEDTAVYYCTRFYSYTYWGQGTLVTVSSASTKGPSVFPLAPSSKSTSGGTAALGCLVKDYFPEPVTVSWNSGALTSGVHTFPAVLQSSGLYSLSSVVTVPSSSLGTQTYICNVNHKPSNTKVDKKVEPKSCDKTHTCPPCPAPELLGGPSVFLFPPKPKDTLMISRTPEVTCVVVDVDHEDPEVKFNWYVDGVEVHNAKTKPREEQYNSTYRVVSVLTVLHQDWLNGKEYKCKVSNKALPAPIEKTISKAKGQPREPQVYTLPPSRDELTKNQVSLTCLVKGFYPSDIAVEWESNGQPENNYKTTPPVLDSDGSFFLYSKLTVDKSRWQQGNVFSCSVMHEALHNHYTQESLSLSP
light: B1 light
notes: as for B1
B4: GpH7-B3 variant K334_05P/GpL16-k0 (antibody, human IgG1, kappa)
heavy: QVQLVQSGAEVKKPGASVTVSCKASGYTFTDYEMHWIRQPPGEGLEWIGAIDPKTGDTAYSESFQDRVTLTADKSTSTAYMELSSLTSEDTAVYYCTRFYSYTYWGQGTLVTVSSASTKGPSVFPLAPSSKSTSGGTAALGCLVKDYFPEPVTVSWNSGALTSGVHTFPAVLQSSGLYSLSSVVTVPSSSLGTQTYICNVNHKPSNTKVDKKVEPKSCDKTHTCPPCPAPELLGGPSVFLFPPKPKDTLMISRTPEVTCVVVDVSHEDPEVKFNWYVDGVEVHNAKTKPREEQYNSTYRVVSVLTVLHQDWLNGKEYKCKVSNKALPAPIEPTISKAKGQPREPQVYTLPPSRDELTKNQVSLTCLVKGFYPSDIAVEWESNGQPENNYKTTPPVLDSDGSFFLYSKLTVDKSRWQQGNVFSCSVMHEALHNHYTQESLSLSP
light: B1 light
notes: as for B1
B5: GpH7-B3 variant Q295_14T/GpL16-k0 (antibody, human IgG1, kappa)
heavy: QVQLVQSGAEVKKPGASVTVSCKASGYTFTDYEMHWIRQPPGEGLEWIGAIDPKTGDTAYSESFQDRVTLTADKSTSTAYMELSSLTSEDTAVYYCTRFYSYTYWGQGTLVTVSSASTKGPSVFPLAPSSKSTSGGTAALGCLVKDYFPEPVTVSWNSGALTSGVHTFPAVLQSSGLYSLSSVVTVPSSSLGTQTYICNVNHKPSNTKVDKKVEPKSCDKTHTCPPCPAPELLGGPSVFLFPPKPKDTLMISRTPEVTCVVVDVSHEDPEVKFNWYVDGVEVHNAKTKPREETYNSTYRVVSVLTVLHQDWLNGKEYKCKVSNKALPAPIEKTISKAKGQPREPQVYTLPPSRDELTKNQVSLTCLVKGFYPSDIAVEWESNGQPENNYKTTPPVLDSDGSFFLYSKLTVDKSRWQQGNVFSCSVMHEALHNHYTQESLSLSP
light: B1 light
notes: as for B1
B6: GpH7-B3 variant K334_07I/GpL16-k0 (antibody, human IgG1, kappa)
heavy: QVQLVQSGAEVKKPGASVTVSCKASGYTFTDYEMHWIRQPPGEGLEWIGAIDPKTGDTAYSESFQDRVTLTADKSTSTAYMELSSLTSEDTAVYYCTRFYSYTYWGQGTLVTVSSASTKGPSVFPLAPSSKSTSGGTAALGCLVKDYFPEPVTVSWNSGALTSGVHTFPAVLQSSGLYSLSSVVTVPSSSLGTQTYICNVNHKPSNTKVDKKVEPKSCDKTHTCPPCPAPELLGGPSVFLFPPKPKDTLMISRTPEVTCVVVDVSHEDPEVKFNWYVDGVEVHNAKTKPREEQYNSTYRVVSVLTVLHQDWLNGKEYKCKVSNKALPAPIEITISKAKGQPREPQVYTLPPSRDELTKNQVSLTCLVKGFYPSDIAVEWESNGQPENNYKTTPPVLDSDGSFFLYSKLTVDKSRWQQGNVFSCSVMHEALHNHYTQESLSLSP
light: B1 light
notes: as for B1
B7: GpH7-B3 variant S239_09D/GpL16-k0 (antibody, human IgG1, kappa)
heavy: not shown
light: B1 light
notes: as for B1
B8: GpH7-B3 variant K334_10E/GpL16-k0 (antibody, human IgG1, kappa)
heavy: not shown
light: B1 light
notes: as for B1
B9: GpH7-B3 variant Q295_10E/GpL16-k0 (antibody, human IgG1, kappa)
heavy: not shown
light: B1 light
notes: as for B1
B10: GpH7-B3 variant K334_14T/GpL16-k0 (antibody, human IgG1, kappa)
heavy: not shown
light: B1 light
notes: as for B1
B11: GpH7-B3 variant S298_14T/GpL16-k0 (antibody, human IgG1, kappa)
heavy: not shown
light: B1 light
notes: as for B1
B12: GpH7-B3 variant K334_19Q/GpL16-k0 (antibody, human IgG1, kappa)
heavy: not shown
light: B1 light
notes: as for B1
B13: GpH7-B3 variant S337_09D/GpL16-k0 (antibody, human IgG1, kappa)
heavy: not shown
light: B1 light
notes: as for B1
B14: GpH7-B3 variant S337_18N/GpL16-k0 (antibody, human IgG1, kappa)
heavy: not shown
light: B1 light
notes: as for B1
B15: GpH7-B3 variant K334_15Y/GpL16-k0 (antibody, human IgG1, kappa)
heavy: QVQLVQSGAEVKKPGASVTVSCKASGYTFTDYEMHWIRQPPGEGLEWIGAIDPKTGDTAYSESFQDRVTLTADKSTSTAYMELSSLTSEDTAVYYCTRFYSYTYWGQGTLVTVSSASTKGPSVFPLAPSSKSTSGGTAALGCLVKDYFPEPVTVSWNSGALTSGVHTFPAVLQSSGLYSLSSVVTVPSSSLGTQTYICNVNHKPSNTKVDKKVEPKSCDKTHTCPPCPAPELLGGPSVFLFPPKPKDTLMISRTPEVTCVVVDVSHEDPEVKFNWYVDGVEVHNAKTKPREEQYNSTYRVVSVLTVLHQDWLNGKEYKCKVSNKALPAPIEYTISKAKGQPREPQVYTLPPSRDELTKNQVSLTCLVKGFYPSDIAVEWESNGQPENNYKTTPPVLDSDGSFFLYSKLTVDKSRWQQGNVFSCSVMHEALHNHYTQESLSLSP
light: B1 light
notes: as for B1
B16: GpH7-B3 variant K334_18N/GpL16-k0 (antibody, human IgG1, kappa)
heavy: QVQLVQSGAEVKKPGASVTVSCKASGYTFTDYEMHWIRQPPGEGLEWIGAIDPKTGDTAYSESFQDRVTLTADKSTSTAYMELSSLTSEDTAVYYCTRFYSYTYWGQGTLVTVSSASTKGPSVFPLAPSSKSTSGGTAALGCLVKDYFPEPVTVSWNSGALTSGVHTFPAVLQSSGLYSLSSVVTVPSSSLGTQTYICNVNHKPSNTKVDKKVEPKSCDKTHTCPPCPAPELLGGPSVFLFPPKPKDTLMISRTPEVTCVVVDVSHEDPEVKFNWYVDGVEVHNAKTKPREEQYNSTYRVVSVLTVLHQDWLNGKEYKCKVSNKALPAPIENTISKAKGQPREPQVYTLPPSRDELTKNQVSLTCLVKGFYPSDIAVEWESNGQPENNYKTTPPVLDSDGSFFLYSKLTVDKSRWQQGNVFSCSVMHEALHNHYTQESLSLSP
light: B1 light
notes: as for B1
B17: GpH7-B3 variant K334_09D/GpL16-k0 (antibody, human IgG1, kappa)
heavy: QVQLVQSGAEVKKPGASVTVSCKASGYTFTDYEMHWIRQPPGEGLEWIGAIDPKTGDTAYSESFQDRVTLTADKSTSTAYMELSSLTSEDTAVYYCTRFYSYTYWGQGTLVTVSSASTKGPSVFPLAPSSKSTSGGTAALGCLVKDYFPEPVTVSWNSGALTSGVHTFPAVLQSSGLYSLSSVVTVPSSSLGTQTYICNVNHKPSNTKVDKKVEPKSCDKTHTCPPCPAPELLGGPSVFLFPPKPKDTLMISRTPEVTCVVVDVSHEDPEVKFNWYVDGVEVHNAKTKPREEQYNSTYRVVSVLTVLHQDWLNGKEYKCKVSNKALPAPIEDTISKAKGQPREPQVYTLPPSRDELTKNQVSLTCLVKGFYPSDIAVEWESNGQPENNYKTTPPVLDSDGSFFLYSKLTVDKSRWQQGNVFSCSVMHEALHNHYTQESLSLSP
light: B1 light
notes: as for B1
B18: GpH7-B3 variant S267_02A/GpL16-k0 (antibody, human IgG1, kappa)
heavy: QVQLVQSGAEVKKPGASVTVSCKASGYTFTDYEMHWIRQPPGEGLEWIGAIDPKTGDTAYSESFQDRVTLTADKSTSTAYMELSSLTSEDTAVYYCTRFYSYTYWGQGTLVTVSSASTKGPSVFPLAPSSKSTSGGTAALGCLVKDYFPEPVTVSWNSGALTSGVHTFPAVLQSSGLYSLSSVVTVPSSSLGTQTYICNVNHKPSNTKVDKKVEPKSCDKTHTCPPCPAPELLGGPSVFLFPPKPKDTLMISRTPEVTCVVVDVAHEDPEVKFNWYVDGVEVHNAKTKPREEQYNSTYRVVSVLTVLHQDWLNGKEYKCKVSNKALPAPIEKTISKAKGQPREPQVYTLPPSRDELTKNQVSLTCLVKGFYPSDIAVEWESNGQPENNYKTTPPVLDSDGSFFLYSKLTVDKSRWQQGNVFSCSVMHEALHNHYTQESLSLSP
light: B1 light
notes: as for B1
B19: GpH7-B3 variant S337_10E/GpL16-k0 (antibody, human IgG1, kappa)
heavy: not shown
light: B1 light
notes: as for B1
B20: GpH7-B3 variant Q295_02A/GpL16-k0 (antibody, human IgG1, kappa)
heavy: not shown
light: B1 light
notes: as for B1
B21: GpH7-B3 variant K334_13S/GpL16-k0 (antibody, human IgG1, kappa)
heavy: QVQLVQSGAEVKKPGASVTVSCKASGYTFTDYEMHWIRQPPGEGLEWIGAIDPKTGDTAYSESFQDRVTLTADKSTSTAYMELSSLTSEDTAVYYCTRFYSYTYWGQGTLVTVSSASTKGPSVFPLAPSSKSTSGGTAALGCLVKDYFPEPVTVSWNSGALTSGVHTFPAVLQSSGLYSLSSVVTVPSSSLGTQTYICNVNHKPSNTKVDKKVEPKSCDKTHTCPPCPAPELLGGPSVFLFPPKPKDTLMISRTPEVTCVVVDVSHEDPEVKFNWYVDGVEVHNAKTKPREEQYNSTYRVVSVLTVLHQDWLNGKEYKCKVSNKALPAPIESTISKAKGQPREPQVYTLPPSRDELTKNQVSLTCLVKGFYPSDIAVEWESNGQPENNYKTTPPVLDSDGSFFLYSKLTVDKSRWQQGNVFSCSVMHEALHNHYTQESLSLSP
light: B1 light
notes: as for B1
B22: GpH7-B3 variant K334_08L/GpL16-k0 (antibody, human IgG1, kappa)
heavy: not shown
light: B1 light
notes: as for B1
B23: GpH7-B3 variant K334_04F/GpL16-k0 (antibody, human IgG1, kappa)
heavy: not shown
light: B1 light
notes: as for B1

target: T1, FcγRIIIa extracellular domain with C-terminal His tag (human, UniProt P08637 17-208); test: SPR, relative to GpH7-B3/GpL16-k0
T1 construct: extracellular domain; also called FcgRIIIa; 3a
T1 sequence (P08637 17-208): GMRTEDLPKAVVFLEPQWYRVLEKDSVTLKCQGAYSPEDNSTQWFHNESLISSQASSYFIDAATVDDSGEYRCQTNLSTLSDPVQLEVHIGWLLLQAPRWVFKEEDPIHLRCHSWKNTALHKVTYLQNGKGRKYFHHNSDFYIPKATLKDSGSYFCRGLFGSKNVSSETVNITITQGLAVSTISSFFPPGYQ

Row | Ho/Con_3a | Binder
1 | 170 % of control (=100) | B1
2 | 153 % of control (=100) | B2
3 | 160 % of control (=100) | B3
4 | 165 % of control (=100) | B4
5 | 108 % of control (=100) | B5
6 | 180 % of control (=100) | B6
7 | 192 % of control (=100) | B7
8 | 206 % of control (=100) | B8
9 | 111 % of control (=100) | B9
10 | 163 % of control (=100) | B10
11 | 107 % of control (=100) | B11
12 | 150 % of control (=100) | B12
13 | 106 % of control (=100) | B13
14 | 102 % of control (=100) | B14
15 | 181 % of control (=100) | B15
16 | 156 % of control (=100) | B16
17 | 150 % of control (=100) | B17
18 | 145 % of control (=100) | B18
19 | 100 % of control (=100) | B19
20 | 108 % of control (=100) | B20
21 | 153 % of control (=100) | B21
22 | 178 % of control (=100) | B22
23 | 168 % of control (=100) | B23
